The assay has as its target T1, recombinant Bri2 protein covering residues 113 to 231 comprising the BRICHOS domain (human, UniProt Q9Y287-1 113-231).
T1 sequence (looked up): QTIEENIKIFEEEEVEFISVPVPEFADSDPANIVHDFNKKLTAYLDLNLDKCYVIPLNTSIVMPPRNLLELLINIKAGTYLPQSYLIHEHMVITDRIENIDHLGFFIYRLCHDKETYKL
Put plainly: immuno-electron microscopy.

Consider KCNTATCATQRLANFLVHSSNNFGAILSSTNVGSNTY (peptide, UniProt P10997 34-70, looked up) [islet amyloid polypeptide IAPP 1–37], for which the binding result was “binds”.

Source of the values: article PMC5866560 (Proceedings of the National Academy of Sciences of the …, 2018).
